Several values for one entry are separate records, joined by “and”; a condition that tells them apart may be missing. Equal entries are not always repeated.
Legend:
[1] = molecular target: actinorhodopsin (ActR, ActRL06) from Nanopelagicus ca., produced in E. coli (Nanopelagicus ca.); experiment: SEC; analytical size-exclusion chromatography of ActR at low pH
[2] = molecular target: actinorhodopsin (ActR, ActRL06) from Nanopelagicus ca., produced in E. coli (Nanopelagicus ca.); experiment: SEC; analytical size-exclusion chromatography of ActR at the neutral pH of the scramblase assays
[3] = molecular target: actinorhodopsin (ActR, ActRL06) from Nanopelagicus ca., produced in E. coli (Nanopelagicus ca.); experiment: negative stain electron microscopy; ActR from E. coli, purified through the metal affinity step, in elution buffer with DDM, pH 7.4, 8-240 ug/mL on grids, 2% uranyl acetate; preliminary single particle analysis

stoichiometry N [1]: 3
stoichiometry N [2]: 5 and 3
stoichiometry N [3]: 5
Substance: actinorhodopsin (ActR, ActRL06) from Nanopelagicus ca., produced in E. coli (natural protein)
